Each binder was assayed against T1, FcγRIa (human, UniProt P12314 16-292) (assay: SPR (Biacore), captured antibody, FcγRIa analyte; relative to HeCon Ab GpH7-A5/GpH7-B3/GpL16-k0 = 100).
T1 construct: extracellular domain; soluble extracellular domain with C-terminal His tag, expressed in FreeStyle293 cells; also called FcgRI; FcgRIa
T1 sequence (P12314 16-292): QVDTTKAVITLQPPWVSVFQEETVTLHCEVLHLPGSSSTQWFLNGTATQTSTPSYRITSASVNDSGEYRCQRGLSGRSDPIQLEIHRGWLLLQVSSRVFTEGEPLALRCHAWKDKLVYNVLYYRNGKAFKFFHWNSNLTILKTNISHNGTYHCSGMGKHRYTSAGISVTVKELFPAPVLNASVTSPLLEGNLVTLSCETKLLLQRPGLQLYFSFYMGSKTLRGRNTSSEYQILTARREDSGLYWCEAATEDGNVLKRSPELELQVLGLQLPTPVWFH

Row | He/Con_1a | Binder
1 | 104 % of control | GpH7-A5/GpH7-B3 variant S324_03V/GpL16-k0 (antibody, human IgG1, kappa, heterodimerized IgG1, mutation in one H chain; also called He Ab) heavy 1: not shown heavy 2: not shown light: DIVMTQSPLSLPVTPGEPASISCQASESLVHSNRNTYLHWYLQKPGQSPQLLIYKVSNRFSGVPDRFSGSGSGTDFTLKISRVEAEDVGVYYCSQNTHVPPTFGQGTKVEIERTVAAPSVFIFPPSDEQLKSGTASVVCLLNNFYPREAKVQWKVDNALQSGNSQESVTEQDSKDSTYSLSSTLTLSKADYEKHKVYACEVTHQGLSSPVTKSFNRGEC
2 | 107 % of control | GpH7-A5/GpH7-B3 variant S298_08L/GpL16-k0 (antibody, human IgG1, kappa, heterodimerized IgG1, mutation in one H chain; also called He Ab) heavy 1: not shown heavy 2: not shown light: DIVMTQSPLSLPVTPGEPASISCQASESLVHSNRNTYLHWYLQKPGQSPQLLIYKVSNRFSGVPDRFSGSGSGTDFTLKISRVEAEDVGVYYCSQNTHVPPTFGQGTKVEIERTVAAPSVFIFPPSDEQLKSGTASVVCLLNNFYPREAKVQWKVDNALQSGNSQESVTEQDSKDSTYSLSSTLTLSKADYEKHKVYACEVTHQGLSSPVTKSFNRGEC
3 | 107 % of control | GpH7-A5/GpH7-B3 variant S298_07I/GpL16-k0 (antibody, human IgG1, kappa, heterodimerized IgG1, mutation in one H chain; also called He Ab) heavy 1: not shown heavy 2: not shown light: DIVMTQSPLSLPVTPGEPASISCQASESLVHSNRNTYLHWYLQKPGQSPQLLIYKVSNRFSGVPDRFSGSGSGTDFTLKISRVEAEDVGVYYCSQNTHVPPTFGQGTKVEIERTVAAPSVFIFPPSDEQLKSGTASVVCLLNNFYPREAKVQWKVDNALQSGNSQESVTEQDSKDSTYSLSSTLTLSKADYEKHKVYACEVTHQGLSSPVTKSFNRGEC
4 | 109 % of control | GpH7-A5/GpH7-B3 variant S298_19Q/GpL16-k0 (antibody, human IgG1, kappa, heterodimerized IgG1, mutation in one H chain; also called He Ab) heavy 1: not shown heavy 2: not shown light: DIVMTQSPLSLPVTPGEPASISCQASESLVHSNRNTYLHWYLQKPGQSPQLLIYKVSNRFSGVPDRFSGSGSGTDFTLKISRVEAEDVGVYYCSQNTHVPPTFGQGTKVEIERTVAAPSVFIFPPSDEQLKSGTASVVCLLNNFYPREAKVQWKVDNALQSGNSQESVTEQDSKDSTYSLSSTLTLSKADYEKHKVYACEVTHQGLSSPVTKSFNRGEC
5 | 114 % of control | GpH7-A5/GpH7-B3 variant S324_20W/GpL16-k0 (antibody, human IgG1, kappa, heterodimerized IgG1, mutation in one H chain; also called He Ab) heavy 1: not shown heavy 2: not shown light: DIVMTQSPLSLPVTPGEPASISCQASESLVHSNRNTYLHWYLQKPGQSPQLLIYKVSNRFSGVPDRFSGSGSGTDFTLKISRVEAEDVGVYYCSQNTHVPPTFGQGTKVEIERTVAAPSVFIFPPSDEQLKSGTASVVCLLNNFYPREAKVQWKVDNALQSGNSQESVTEQDSKDSTYSLSSTLTLSKADYEKHKVYACEVTHQGLSSPVTKSFNRGEC
6 | 108 % of control | GpH7-A5/GpH7-B3 variant S298_10E/GpL16-k0 (antibody, human IgG1, kappa, heterodimerized IgG1, mutation in one H chain; also called He Ab) heavy 1: not shown heavy 2: not shown light: DIVMTQSPLSLPVTPGEPASISCQASESLVHSNRNTYLHWYLQKPGQSPQLLIYKVSNRFSGVPDRFSGSGSGTDFTLKISRVEAEDVGVYYCSQNTHVPPTFGQGTKVEIERTVAAPSVFIFPPSDEQLKSGTASVVCLLNNFYPREAKVQWKVDNALQSGNSQESVTEQDSKDSTYSLSSTLTLSKADYEKHKVYACEVTHQGLSSPVTKSFNRGEC
7 | 107 % of control | GpH7-A5/GpH7-B3 variant S298_14T/GpL16-k0 (antibody, human IgG1, kappa, heterodimerized IgG1, mutation in one H chain; also called He Ab) heavy 1: not shown heavy 2: not shown light: DIVMTQSPLSLPVTPGEPASISCQASESLVHSNRNTYLHWYLQKPGQSPQLLIYKVSNRFSGVPDRFSGSGSGTDFTLKISRVEAEDVGVYYCSQNTHVPPTFGQGTKVEIERTVAAPSVFIFPPSDEQLKSGTASVVCLLNNFYPREAKVQWKVDNALQSGNSQESVTEQDSKDSTYSLSSTLTLSKADYEKHKVYACEVTHQGLSSPVTKSFNRGEC
8 | 112 % of control | GpH7-A5/GpH7-B3 variant S324_19Q/GpL16-k0 (antibody, human IgG1, kappa, heterodimerized IgG1, mutation in one H chain; also called He Ab) heavy 1: not shown heavy 2: not shown light: DIVMTQSPLSLPVTPGEPASISCQASESLVHSNRNTYLHWYLQKPGQSPQLLIYKVSNRFSGVPDRFSGSGSGTDFTLKISRVEAEDVGVYYCSQNTHVPPTFGQGTKVEIERTVAAPSVFIFPPSDEQLKSGTASVVCLLNNFYPREAKVQWKVDNALQSGNSQESVTEQDSKDSTYSLSSTLTLSKADYEKHKVYACEVTHQGLSSPVTKSFNRGEC
9 | 107 % of control | GpH7-A5/GpH7-B3 variant S337_03V/GpL16-k0 (antibody, human IgG1, kappa, heterodimerized IgG1, mutation in one H chain; also called He Ab) heavy 1: not shown heavy 2: not shown light: DIVMTQSPLSLPVTPGEPASISCQASESLVHSNRNTYLHWYLQKPGQSPQLLIYKVSNRFSGVPDRFSGSGSGTDFTLKISRVEAEDVGVYYCSQNTHVPPTFGQGTKVEIERTVAAPSVFIFPPSDEQLKSGTASVVCLLNNFYPREAKVQWKVDNALQSGNSQESVTEQDSKDSTYSLSSTLTLSKADYEKHKVYACEVTHQGLSSPVTKSFNRGEC
10 | 108 % of control | GpH7-A5/GpH7-B3 variant S298_18N/GpL16-k0 (antibody, human IgG1, kappa, heterodimerized IgG1, mutation in one H chain; also called He Ab) heavy 1: not shown heavy 2: not shown light: DIVMTQSPLSLPVTPGEPASISCQASESLVHSNRNTYLHWYLQKPGQSPQLLIYKVSNRFSGVPDRFSGSGSGTDFTLKISRVEAEDVGVYYCSQNTHVPPTFGQGTKVEIERTVAAPSVFIFPPSDEQLKSGTASVVCLLNNFYPREAKVQWKVDNALQSGNSQESVTEQDSKDSTYSLSSTLTLSKADYEKHKVYACEVTHQGLSSPVTKSFNRGEC

— US20150344570A1 (published 2015)
